B1: Protein aveugle (Drosophila melanogaster (Fruit fly)), Q8ML92 (parent)
chain: MGEETINSTQNKTRTKTTRPKAVYLWTVSDVLKWYRRHCGEYTQYEQLFAQHDITGRALLRITDSSLQRMGVTDNRDREAIWREIVKQRLKTDIMEIRDMERLNIY
B2: Connector enhancer of kinase suppressor of ras 2 (Homo sapiens), Q8WXI2 (parent)
chain: MALIMEPVSKWSPSQVVDWMKGLDDCLQQYIKNFEREKISGDQLLRITHQELEDLGVSRIGHQELILEAVDLLCALNYGLETENLKTLSHKLNASAKNLQNFITGRRRSGHYDGRTSRKLPNDFLTSVVDLIGAAKSLLAWLDRSPFAAVTDYSVTRNNVIQLCLELTTIVQQDCTVYETENKILHVCKTLSGVCDHIISLSSDPLVSQSAHLEVIQLANIKPSEGLGMYIKSTYDGLHVITGTTENSPADRCKKIHAGDEVIQVNHQTVVGWQLKNLVNALREDPSGVILTLKKRPQSMLTSAPALLKNMRWKPLALQPLIPRSPTSSVATPSSTISTPTKRDSSALQDLYIPPPPAEPYIPRDEKGNLPCEDLRGHMVGKPVHKGSESPNSFLDQEYRKRFNIVEEDTVLYCYEYEKGRSSSQGRRESTPTYGKLRPISMPVEYNWVGDYEDPNKMKRDSRRENSLLRYMSNEKIAQEEYMFQRNSKKDTGKKSKKKGDKSNSPTHYSLLPSLQMDALRQDIMGTPVPETTLYHTFQQSSLQHKSKKKNKGPIAGKSKRRISCKDLGRGDCEGWLWKKKDAKSYFSQKWKKYWFVLKDASLYWYINEEDEKAEGFISLPEFKIDRASECRKKYAFKACHPKIKSFYFAAEHLDDMNRWLNRINMLTAGYAERERIKQEQDYWSESDKEEADTPSTPKQDSPPPPYDTYPRPPSMSCASPYVEAKHSRLSSTETSQSQSSHEEFRQEVTGSSAVSPIRKTASQRRSWQDLIETPLTSSGLHYLQTLPLEDSVFSDSAAISPEHRRQSTLPTQKCHLQDHYGPYPLAESERMQVLNGNGGKPRSFTLPRDSGFNHCCLNAPVSACDPQDDVQPPEVEEEEEEEEEEGEAAGENIGEKSESREEKLGDSLQDLYRALEQASLSPLGEHRISTKMEYKLSFIKRCNDPVMNEKLHRLRILKSTLKAREGEVAIIDKVLDNPDLTSKEFQQWKQMYLDLFLDICQNTTSNDPLSISSEVDVITSSLAHTHSYIETHV
partner: B1 chain

Variants of: B1
Conditions: with cnkr2_human CNKSR2, Q8WXI2

Q: With MGEETINSTQNKTRTKTTRPKAVYLWTVSDVLKWYRRHCGEYTQYEQLFAQHDITGAALLAITDSSLQRMGVTDNRDREAIWREIVKQRLKTDIMEIRDMERLNIY as the variant, how does the “effect of a mutation on the interaction” value read?
A: Its value is “decreasing interaction”.

Q: Which “effect of a mutation on the interaction” value does the source give for MGEETINSTQNKTRTKTTRPKAVYLWTVSDVLKWYRRHCGEYTQYEQLFAQHDITGEALLEITDSSLQRMGVTDNRDREAIWREIVKQRLKTDIMEIRDMERLNIY here?
A: The value was “disrupting interaction”.

Q: Which “effect of a mutation on the interaction” value does the source give for MGEETINSTQNKTRTKTTRPKAVYLWTVSDVLKWYRRHCGEYTQYEQLFAQHDITGRALLEITDSSLQRMGVTDNRDREAIWREIVKQRLKTDIMEIRDMERLNIY here?
A: Its value is “decreasing interaction”.

Variants of: B2
Conditions: with ave_drome ave, Q8ML92

Q: With I60A as the variant, how does the “effect of a mutation on the interaction” value read?
A: Its value is “decreasing interaction”.

Q: How did the “effect of a mutation on the interaction” value turn out when E68R;D71R was run?
A: Its value is “disrupting interaction”.

Q: With D71R as the variant, how does the “effect of a mutation on the interaction” value read?
A: Its value is “decreasing interaction”.

Source: IntAct's records for PubMed 18287031
